Test results as given in paper PMC6392501.

Key:
[1] = target: C-terminal coiled-coil of hTMEM266 (residues 224–289) (human) (UniProt Q2M3C6); test: non-reducing SDS-PAGE; purified coiled-coil run on SDS-PAGE with or without 2-ME; single species (monomer) with 2-ME, additional band at ~15 kDa without
[2] = target: C-terminal twin-Strep-tagged hTMEM266 (human) (UniProt Q2M3C6); test: cross-linking; DSS (varying concentration) applied to intact HEK 293T cells expressing Strep-tagged hTMEM266; membrane fractions on SDS-PAGE; Western blot with anti-Strep antibody
[3] = target: C-terminal twin-Strep-tagged hTMEM266 (human) (UniProt Q2M3C6); test: cross-linking; air oxidation (disulfide) of membrane fractions of HEK 293T cells expressing Strep-tagged hTMEM266; 10 mM NEM; SDS-PAGE with or without 2-ME; Western blot with anti-Strep antibody

stoichiometry N [1]	stoichiometry N [2]	stoichiometry N [3]	Substance
2	–	–	C-terminal coiled-coil of hTMEM266 (residues 224–289) (from UniProt Q2M3C6 224-289) (domain or fragment)
–	2	2	C-terminal twin-Strep-tagged hTMEM266 (from UniProt Q2M3C6 1-523) (natural protein)
